Values quoted from earlier work as cited in paper PMC4845744.
pKd: −log10 of the molar value.

Biological target: MutLα (Homo sapiens) (UniProt P40692)
Sequence (P40692 2-756, chain 1 of 2): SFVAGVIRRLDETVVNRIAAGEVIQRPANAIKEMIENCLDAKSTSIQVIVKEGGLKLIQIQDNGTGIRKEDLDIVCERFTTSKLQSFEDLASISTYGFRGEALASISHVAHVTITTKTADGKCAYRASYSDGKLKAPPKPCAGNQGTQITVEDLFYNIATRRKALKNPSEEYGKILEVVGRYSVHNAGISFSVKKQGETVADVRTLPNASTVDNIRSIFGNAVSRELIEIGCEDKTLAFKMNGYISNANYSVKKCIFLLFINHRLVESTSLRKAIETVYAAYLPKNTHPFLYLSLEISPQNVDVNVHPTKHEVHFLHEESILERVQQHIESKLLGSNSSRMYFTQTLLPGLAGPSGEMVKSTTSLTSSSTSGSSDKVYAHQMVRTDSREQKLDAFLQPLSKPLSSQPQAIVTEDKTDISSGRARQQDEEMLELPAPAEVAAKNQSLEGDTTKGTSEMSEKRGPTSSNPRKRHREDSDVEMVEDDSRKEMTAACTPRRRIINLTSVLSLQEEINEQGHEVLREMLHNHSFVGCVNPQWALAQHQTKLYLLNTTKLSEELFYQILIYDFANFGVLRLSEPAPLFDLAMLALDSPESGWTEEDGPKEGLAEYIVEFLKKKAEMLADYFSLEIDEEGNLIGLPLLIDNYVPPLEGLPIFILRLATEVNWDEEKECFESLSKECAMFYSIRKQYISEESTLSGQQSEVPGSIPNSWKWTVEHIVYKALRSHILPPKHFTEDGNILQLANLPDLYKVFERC
Sequence (P54278 whole entry, chain 2 of 2, further chain): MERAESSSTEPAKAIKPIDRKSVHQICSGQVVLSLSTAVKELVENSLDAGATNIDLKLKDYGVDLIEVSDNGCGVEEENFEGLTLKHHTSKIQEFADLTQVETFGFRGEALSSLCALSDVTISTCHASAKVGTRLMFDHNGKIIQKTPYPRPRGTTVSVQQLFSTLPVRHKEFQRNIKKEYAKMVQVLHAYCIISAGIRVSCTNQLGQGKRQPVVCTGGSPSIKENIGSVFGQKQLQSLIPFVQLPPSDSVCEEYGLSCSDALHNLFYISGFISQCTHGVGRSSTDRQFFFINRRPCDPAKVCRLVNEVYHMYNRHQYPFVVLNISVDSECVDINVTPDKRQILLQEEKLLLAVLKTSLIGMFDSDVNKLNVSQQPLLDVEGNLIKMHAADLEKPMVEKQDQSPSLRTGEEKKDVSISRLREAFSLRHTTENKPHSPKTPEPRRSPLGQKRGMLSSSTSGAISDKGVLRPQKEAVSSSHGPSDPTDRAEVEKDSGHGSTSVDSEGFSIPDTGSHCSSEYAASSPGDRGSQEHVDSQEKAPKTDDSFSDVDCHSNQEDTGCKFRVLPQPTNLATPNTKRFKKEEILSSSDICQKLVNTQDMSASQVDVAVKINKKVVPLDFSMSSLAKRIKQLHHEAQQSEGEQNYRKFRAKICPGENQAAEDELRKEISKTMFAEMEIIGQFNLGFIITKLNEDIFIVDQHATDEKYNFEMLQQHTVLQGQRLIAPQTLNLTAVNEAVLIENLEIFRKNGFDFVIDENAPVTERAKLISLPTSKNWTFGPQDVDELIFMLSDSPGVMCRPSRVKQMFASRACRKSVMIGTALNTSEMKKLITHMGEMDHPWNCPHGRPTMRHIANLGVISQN

MutSβ (from UniProt P43246)
pKd: 6.60
